According to patent publication US20190314479A1:

Columns and labels:
HLA-A2 molecules [1] = test: T2A2 peptide binding assay to HLA-A2
HLA-A2 molecules [2] = test: T2A2 peptide binding assay to HLA-A2, negative control

In the case of “HPV-16 E6 agonist peptide E6-A1 (L19V) (peptide; other documents disagree on this pair)”, the T2A2 Binding (HLA-A2 molecules [1]) is reported as 1340.
For “HPV-16 E6 agonist peptide E6-A2 (C80V) (peptide; other documents disagree on this pair)”, the T2A2 Binding (HLA-A2 molecules [1]) was 877.
Work on “HPV-16 E6 agonist peptide E6-A3 (Q91L/L99V) (peptide; other documents disagree on this pair)” yielded a T2A2 Binding (HLA-A2 molecules [1]) of 1280.
“HPV-16 E6 native peptide E6-1 (E6 11-19)” gave a T2A2 Binding (HLA-A2 molecules [1]) of 853.
“HPV-16 E7 agonist peptide E7-A1 (T19V) (peptide; other documents disagree on this pair)” was tested, and the T2A2 Binding (HLA-A2 molecules [1]) was 1170.
“HPV-16 E7 agonist peptide E7-A2 (L15V) (peptide; other documents disagree on this pair)” was tested, and the T2A2 Binding (HLA-A2 molecules [1]) was 1530.
Substance “HPV-16 E7 agonist peptide E7-A3 (T86V) (peptide; other documents disagree on this pair)” has a T2A2 Binding (HLA-A2 molecules [1]) of 1260.
NEG (Negative control) (peptide) gave a T2A2 Binding (HLA-A2 molecules [2]) of 812.
